Data taken from US9845340B2, “Peptides that specifically bind HGF receptor (cMet) and uses thereof” (Dyax Corp., priority 2003, dated 2017).

Key:
cMet-Fc fusion protein = cMet-Fc fusion protein (Homo sapiens, UniProt P08581); experiment: Protein phage ELISA: peptide-displaying phage binding to soluble cMet-Fc versus TRAIL-Fc; conditions: phage isolate; cMet-Fc vs. TRAIL-Fc
Outline: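 Phage displaying selected peptides were incubated 2 h at room temperature on wells coated with 0.5 μg/mL cMet-Fc, with TRAIL-Fc coating as the unrelated-Fc specificity control.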

[1] = molecular target: T1, 3T3 cells that over-express human cMet (Homo sapiens, UniProt P08581); experiment: Whole cell ELISA of peptide-displaying phage; format: cell-based; conditions: phage isolate; 3T3 cells expressing human cMet vs. non-expressing 3T3 cells
T1 construct: expressed in transfected cells; host or cells: 3T3 cells
Outline: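 Phage displaying peptides, pre-blocked 1 h at 37 °C, incubated 1 h at RT on glutaraldehyde-fixed (0.1%, 12 min, 37 °C) cMet-overexpressing 3T3 cells (10^5 per well). Binding read out by HRP anti-M13 antibody after PBST washing.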

T1 sequence (P08581 25-1390): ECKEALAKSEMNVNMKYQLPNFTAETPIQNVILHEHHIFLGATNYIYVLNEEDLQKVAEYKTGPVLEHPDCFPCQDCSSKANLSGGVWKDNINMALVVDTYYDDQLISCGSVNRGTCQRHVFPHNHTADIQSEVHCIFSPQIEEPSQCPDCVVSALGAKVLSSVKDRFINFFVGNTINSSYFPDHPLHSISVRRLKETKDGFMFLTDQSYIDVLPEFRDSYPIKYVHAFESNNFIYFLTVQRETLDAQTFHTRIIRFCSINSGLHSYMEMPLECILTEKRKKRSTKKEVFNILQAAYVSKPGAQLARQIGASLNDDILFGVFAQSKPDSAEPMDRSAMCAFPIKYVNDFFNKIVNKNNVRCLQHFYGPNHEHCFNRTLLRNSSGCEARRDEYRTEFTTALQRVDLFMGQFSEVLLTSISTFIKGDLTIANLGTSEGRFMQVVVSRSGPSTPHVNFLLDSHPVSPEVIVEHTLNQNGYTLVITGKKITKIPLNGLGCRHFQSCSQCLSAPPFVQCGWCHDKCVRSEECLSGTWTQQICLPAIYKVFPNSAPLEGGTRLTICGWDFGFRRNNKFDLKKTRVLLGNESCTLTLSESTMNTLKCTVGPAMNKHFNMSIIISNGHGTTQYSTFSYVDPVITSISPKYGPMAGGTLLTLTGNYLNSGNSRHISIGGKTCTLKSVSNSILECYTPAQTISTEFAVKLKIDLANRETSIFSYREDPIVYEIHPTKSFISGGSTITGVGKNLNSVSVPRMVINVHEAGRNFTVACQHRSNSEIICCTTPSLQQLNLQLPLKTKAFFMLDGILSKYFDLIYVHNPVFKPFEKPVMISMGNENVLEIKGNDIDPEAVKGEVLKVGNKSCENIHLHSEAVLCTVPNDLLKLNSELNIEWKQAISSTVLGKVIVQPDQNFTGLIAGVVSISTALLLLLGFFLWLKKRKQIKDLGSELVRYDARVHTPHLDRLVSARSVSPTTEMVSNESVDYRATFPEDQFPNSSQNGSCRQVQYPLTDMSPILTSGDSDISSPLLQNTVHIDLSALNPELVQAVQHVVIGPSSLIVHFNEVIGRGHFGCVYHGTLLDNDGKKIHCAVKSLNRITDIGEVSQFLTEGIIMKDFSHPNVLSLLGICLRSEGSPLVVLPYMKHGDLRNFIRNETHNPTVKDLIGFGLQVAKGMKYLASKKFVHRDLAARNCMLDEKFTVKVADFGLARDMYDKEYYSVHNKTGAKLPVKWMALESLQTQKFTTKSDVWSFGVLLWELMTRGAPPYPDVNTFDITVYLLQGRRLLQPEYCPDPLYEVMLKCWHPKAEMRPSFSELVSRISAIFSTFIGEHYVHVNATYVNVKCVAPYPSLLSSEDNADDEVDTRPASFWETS
Sequence of cMet-Fc fusion protein (P08581 25-307 limits assumed): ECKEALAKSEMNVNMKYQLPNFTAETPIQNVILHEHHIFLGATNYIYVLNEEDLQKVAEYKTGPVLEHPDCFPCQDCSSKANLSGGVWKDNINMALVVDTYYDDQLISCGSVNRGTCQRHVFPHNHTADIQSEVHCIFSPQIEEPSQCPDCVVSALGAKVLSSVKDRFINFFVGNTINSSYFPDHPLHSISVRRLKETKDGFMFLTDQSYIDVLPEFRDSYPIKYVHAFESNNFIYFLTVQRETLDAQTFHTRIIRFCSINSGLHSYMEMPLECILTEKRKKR
Sequence of cMet-Fc fusion protein (P08581 with tags, fused parts or gaps limits assumed): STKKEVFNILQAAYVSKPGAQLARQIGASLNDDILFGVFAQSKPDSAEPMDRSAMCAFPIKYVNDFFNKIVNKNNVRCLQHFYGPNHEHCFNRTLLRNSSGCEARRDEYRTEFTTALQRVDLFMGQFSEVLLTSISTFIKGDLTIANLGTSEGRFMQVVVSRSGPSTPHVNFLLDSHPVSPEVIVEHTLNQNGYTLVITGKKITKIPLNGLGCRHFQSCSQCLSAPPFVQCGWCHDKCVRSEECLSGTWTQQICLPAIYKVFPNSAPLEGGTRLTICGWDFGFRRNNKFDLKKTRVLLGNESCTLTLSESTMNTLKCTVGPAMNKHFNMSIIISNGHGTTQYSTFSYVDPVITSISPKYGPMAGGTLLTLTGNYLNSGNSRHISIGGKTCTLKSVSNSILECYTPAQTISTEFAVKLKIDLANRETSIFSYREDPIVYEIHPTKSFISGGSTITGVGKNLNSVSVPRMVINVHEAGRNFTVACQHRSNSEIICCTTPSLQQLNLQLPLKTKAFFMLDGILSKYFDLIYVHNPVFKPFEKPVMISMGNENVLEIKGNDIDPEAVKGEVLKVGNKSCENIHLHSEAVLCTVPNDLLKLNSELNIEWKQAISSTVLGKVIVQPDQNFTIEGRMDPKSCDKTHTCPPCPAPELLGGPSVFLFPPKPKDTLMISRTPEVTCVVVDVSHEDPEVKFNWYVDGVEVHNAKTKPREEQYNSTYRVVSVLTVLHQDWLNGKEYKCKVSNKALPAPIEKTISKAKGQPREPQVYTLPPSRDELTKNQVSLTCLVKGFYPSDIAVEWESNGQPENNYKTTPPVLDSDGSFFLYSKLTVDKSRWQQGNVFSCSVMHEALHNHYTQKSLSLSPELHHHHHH

| Compound | Protein ELISA (cMet-Fc fusion protein) [fold over background] | WC ELISA [1] [fold over background] |
| --- | --- | --- |
| CC[C@H](C)[C@@H]1NC(=O)[C@H](Cc2ccc(O)cc2)NC(=O)[C@H]([C@@H](C)O)NC(=O)[C@H](CCC(=O)O)NC(=O)[C@H](CC(C)C)NC(=O)[C@H](CC(=O)O)NC(=O)[C@H](Cc2ccccc2)NC(=O)[C@H](CC(=O)O)NC(=O)[C@@H](NC(=O)[C@H](Cc2ccc(O)cc2)NC(=O)[C@H](CC(=O)O)NC(=O)[C@H](Cc2ccc(O)cc2)NC(=O)[C@H](CC(=O)O)NC(=O)CNC(C)=O)CSSC[C@@H](C(=O)N[C@@H](Cc2c[nH]cn2)C(=O)N[C@@H](CO)C(=O)N[C@@H](Cc2ccc(O)cc2)C(=O)N[C@@H](CC(=O)O)C(=O)N2CCC[C@H]2C(=O)NCC(=O)NCC(=O)NCC(=O)N[C@@H](CCCCNC(=O)c2ccc3c(c2)C(=O)OC32c3ccc(O)cc3Oc3cc(O)ccc32)C(N)=O)NC(=O)[C@H](CCC(=O)O)NC(=O)[C@@H]2CCCN2C1=O [SEQ ID NO: 390] | 16.1 | 1.27 |
| GSQQICDRKEYRFQACLSDAP (Synthetically generated cMet-binding peptide sequence) [SEQ ID NO: 371] | 3.4 | 1.40 |
| CC[C@H](C)[C@@H]1NC(=O)[C@H](Cc2ccccc2)NC(=O)[C@H](CCC(=O)O)NC(=O)[C@@H](NC(=O)[C@H](Cc2c[nH]cn2)NC(=O)[C@H](Cc2ccccc2)NC(=O)[C@H](CC(=O)O)NC(=O)[C@H](CC(=O)O)NC(=O)CNC(C)=O)CSSC[C@@H](C(=O)N[C@@H](Cc2ccc(O)cc2)C(=O)N[C@@H](Cc2ccccc2)C(=O)N[C@@H](CC(N)=O)C(=O)N[C@@H](CC(=O)O)C(=O)N2CCC[C@H]2C(=O)NCC(=O)NCC(=O)NCC(=O)N[C@@H](CCCCNC(=O)c2ccc3c(c2)C(=O)OC32c3ccc(O)cc3Oc3cc(O)ccc32)C(N)=O)NC(=O)[C@H]([C@@H](C)CC)NC(=O)[C@H](CCC(=O)O)NC(=O)[C@H](CO)NC(=O)[C@H](CCC(N)=O)NC(=O)[C@H](Cc2ccc(O)cc2)NC(=O)[C@H](CC(=O)O)NC(=O)[C@H](CC(=O)O)NC1=O [SEQ ID NO: 391] | 12.4 | 1.37 |
| AQQWMFQIHQSMAWPYEWIDSY (Synthetically generated cMet-binding peptide sequence) [SEQ ID NO: 494] | 3.9 | 1.23 |
| GSQNNCEYGSRGSSFCLAMAP (Synthetically generated cMet-binding peptide sequence) [SEQ ID NO: 377] | 6.4 | 1.23 |
| GSTMSCWRWGRDAYSCNQMAP (Synthetically generated cMet-binding peptide sequence) [SEQ ID NO: 372] | 4.6 | 1.37 |
| GSLIICWWSWCDKQAP (Synthetically generated cMet-binding peptide sequence) [SEQ ID NO: 009] | 3.8 | 1.27 |
| AQDNTADQMFNGFHVLAMYMV (Synthetically generated cMet-binding peptide sequence) [SEQ ID NO: 481] | 3.3 | 1.37 |
| AGYSVCKGYPSFECAFFGT (Synthetically generated cMet-binding peptide sequence) [SEQ ID NO: 075] | 5.8 | 1.33 |
| AGHTICQHKALGCPANGT (Synthetically generated cMet-binding peptide sequence) [SEQ ID NO: 041] | 3.1 | 1.27 |
| AGTVYCSWESSECWWVGT (Synthetically generated cMet-binding peptide sequence) [SEQ ID NO: 019] | 3.9 | 1.37 |
| GDASWCDENSPAAWFYCELWDP (Synthetically generated cMet-binding peptide sequence) [SEQ ID NO: 394] | 13.4 | 1.37 |
| AGSYWCSGPPTFMCRYEGT (Synthetically generated cMet-binding peptide sequence) [SEQ ID NO: 085] | 17.1 | 1.27 |
| CC[C@H](C)[C@H](NC(=O)[C@H](C)NC(=O)[C@H](CCC(=O)O)NC(=O)[C@H](C)NC(=O)[C@@H](NC(=O)CNC(=O)[C@@H](NC(=O)[C@H](CCC(N)=O)NC(=O)[C@H](C)NC(C)=O)C(C)C)[C@@H](C)O)C(=O)N[C@@H](CCSC)C(=O)N[C@@H](Cc1ccccc1)C(=O)N[C@@H](CO)C(=O)N[C@@H](CC(=O)O)C(=O)N[C@H](C(=O)N[C@@H](CCC(=O)O)C(=O)N[C@@H](CC(=O)O)C(=O)N[C@H](C(=O)NCC(=O)N[C@H](C(=O)N[C@@H](Cc1c[nH]cn1)C(=O)N[C@@H](CCCCN)C(=O)N[C@@H](Cc1ccccc1)C(=O)NCC(=O)NCC(=O)NCC(=O)N[C@@H](CCCCNC(=O)c1ccc2c(c1)C(=O)OC21c2ccc(O)cc2Oc2cc(O)ccc21)C(N)=O)C(C)C)[C@@H](C)O)C(C)C [SEQ ID NO: 459] | 5.7 | 1.33 |
| GSLIFCPYGECMMYAP (Synthetically generated cMet-binding peptide sequence) [SEQ ID NO: 005] | 3.5 | 1.33 |
| AQHGYLSPLKQYQMSHVEFWTY (Synthetically generated cMet-binding peptide sequence) [SEQ ID NO: 476] | 3.5 | 1.17 |
| AQMGHHWDVQWDYKLFHVARGD (Synthetically generated cMet-binding peptide sequence) [SEQ ID NO: 473] | 3.7 | 1.23 |
| AQSDHDHAHWGVKHWPFRRYQ (Synthetically generated cMet-binding peptide sequence) [SEQ ID NO: 482] | 3.1 | 1.20 |
| AGHGTCRGWPTFECIYFGT (Synthetically generated cMet-binding peptide sequence) [SEQ ID NO: 064] | 6.0 | 1.40 |
| ADAWMCEYFQWNCGDKGT (Synthetically generated cMet-binding peptide sequence) [SEQ ID NO: 046] | 4.5 | 1.33 |
| GSMLMCELWWCRFLAP (Synthetically generated cMet-binding peptide sequence) [SEQ ID NO: 004] | 3.4 | 1.27 |
| AQHMDPAEWDWFIRIYSPVVNP (Synthetically generated cMet-binding peptide sequence) [SEQ ID NO: 487] | 3.0 | 1.80 |
